Test [1] addresses T1, hMSH6 (recombinant, subunit of purified hMutSα) (human, UniProt P52701 1-1360). Description: far-Western.
The target in test [2] is T1, hMSH6 (recombinant, subunit of purified …). The experiment in a line: pull-down.
Test [3] deals with hMSH3 (recombinant, subunit of purified hMutSβ) (human, UniProt P20585 1-1137). Description: far-Western.
Sequence of hMSH3 (recombinant, subunit of purified hMutSβ) (P20585 whole entry): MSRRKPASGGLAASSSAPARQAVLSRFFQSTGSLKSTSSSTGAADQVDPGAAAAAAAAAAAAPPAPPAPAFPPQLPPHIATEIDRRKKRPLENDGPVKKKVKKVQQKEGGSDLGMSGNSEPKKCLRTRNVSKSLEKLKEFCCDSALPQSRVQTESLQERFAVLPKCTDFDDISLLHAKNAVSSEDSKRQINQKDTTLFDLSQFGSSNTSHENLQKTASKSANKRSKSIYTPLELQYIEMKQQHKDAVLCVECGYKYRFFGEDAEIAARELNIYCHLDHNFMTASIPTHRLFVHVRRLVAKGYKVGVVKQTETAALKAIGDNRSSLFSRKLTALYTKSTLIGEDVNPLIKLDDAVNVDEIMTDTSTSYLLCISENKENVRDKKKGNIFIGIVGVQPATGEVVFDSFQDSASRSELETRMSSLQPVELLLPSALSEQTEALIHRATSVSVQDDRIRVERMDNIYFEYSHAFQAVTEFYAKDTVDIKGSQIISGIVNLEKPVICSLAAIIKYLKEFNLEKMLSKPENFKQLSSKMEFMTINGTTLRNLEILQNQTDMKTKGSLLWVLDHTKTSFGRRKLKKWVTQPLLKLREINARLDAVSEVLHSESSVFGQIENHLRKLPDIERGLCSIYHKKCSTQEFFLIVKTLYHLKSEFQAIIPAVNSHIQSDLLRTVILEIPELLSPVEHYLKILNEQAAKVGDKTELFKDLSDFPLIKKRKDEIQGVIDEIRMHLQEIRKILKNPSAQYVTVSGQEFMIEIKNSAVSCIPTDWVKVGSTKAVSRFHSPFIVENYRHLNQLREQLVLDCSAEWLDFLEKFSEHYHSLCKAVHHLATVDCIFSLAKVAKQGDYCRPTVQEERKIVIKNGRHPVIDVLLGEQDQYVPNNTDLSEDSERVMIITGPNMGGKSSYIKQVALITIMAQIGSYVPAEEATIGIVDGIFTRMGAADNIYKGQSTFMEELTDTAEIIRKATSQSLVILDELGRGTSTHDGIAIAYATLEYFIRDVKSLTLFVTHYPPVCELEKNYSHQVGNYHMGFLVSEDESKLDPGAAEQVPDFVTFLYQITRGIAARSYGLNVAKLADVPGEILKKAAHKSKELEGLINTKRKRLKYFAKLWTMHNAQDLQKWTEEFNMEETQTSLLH

T1 sequence (P52701 whole entry): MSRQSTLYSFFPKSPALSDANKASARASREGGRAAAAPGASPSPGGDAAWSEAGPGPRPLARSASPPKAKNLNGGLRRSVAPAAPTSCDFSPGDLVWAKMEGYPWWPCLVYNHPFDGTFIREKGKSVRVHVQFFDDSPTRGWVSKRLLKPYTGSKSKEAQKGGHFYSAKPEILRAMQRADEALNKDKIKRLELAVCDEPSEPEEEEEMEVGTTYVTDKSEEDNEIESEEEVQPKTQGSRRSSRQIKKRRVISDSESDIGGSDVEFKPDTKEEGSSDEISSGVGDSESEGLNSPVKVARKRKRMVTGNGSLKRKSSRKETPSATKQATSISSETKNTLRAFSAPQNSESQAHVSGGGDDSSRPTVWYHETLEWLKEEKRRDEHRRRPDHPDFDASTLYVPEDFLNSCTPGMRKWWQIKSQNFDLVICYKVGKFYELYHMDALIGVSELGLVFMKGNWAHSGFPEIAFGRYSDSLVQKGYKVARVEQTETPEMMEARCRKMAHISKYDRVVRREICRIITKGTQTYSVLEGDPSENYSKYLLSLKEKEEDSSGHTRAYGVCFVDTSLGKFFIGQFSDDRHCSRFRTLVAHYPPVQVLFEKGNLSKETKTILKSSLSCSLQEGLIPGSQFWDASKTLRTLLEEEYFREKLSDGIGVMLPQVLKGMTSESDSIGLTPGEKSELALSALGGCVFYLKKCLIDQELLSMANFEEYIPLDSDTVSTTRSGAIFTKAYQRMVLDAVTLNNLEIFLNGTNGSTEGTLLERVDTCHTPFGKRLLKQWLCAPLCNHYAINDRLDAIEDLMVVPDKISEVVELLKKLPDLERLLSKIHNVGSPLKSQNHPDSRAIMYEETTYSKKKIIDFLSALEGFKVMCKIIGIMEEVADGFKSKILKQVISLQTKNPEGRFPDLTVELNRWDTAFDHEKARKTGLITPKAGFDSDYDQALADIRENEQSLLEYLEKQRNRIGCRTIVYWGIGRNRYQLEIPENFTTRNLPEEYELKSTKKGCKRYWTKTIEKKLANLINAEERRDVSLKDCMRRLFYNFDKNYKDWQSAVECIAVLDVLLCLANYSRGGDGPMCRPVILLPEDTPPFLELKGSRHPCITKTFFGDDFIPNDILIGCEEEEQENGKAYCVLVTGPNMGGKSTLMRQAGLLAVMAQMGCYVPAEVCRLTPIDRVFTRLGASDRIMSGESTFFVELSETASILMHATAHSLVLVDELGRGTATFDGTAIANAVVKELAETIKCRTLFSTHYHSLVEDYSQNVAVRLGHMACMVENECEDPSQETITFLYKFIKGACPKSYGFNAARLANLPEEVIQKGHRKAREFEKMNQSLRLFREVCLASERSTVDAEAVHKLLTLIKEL

B1: GST-hRad1 (natural protein, human, UniProt O60671 1-282, looked up)
chain: MPLLTQQIQDEDDQYSLVASLDNVRNLSTILKAIHFREHATCFATKNGIKVTVENAKCVQANAFIQAGIFQEFKVQEESVTFRINLTVLLDCLSIFGSSPMPGTLTALRMCYQGYGYPLMLFLEEGGVVTVCKINTQEPEETLDFDFCSTNVINKIILQSEGLREAFSELDMTSEVLQITMSPDKPYFRLSTFGNAGSSHLDYPKDSDLMEAFHCNQTQVNRYKISLLKPSTKALVLSCKVSIRTDNRGFLSLQYMIRNEDGQICFVEYYCCPDEEVPESES
B1: the binding result in test [1] is listed as “binds”.

B2: GST-hRad9 (natural protein, human, UniProt Q99638 1-391, looked up)
chain: MKCLVTGGNVKVLGKAVHSLSRIGDELYLEPLEDGLSLRTVNSSRSAYACFLFAPLFFQQYQAATPGQDLLRCKILMKSFLSVFRSLAMLEKTVEKCCISLNGRSSRLVVQLHCKFGVRKTHNLSFQDCESLQAVFDPASCPHMLRAPARVLGEAVLPFSPALAEVTLGIGRGRRVILRSYHEEEADSTAKAMVTEMCLGEEDFQQLQAQEGVAITFCLKEFRGLLSFAESANLNLSIHFDAPGRPAIFTIKDSLLDGHFVLATLSDTDSHSQDLGSPERHQPVPQLQAHSTPHPDDFANDDIDSYMIAMETTIGNEGSRVLPSISLSPGPQPPKSPGPHSEEEDEAEPSTVPGTPPPKKFRSLFFGSILAPVRSPQGPSPVLAEDSEGEG
For the molecule B2, in test [1], the binding result is “binds”.

B3: GST-hHus1 (natural protein, human, UniProt O60921 1-280, looked up)
chain: MKFRAKIVDGACLNHFTRISNMIAKLAKTCTLRISPDKLNFILCDKLANGGVSMWCELEQENFFNEFQMEGVSAENNEIYLELTSENLSRALKTAQNARALKIKLTNKHFPCLTVSVELLSMSSSSRIVTHDIPIKVIPRKLWKDLQEPVVPDPDVSIYLPVLKTMKSVVEKMKNISNHLVIEANLDGELNLKIETELVCVTTHFKDLGNPPLASESTHEDRNVEHMAEVHIDIRKLLQFLAGQQVNPTKALCNIVNNKMVHFDLLHEDVSLQYFIPALS
For B3, the binding result in test [2] and in test [3] was “binds” in each case.

These data come from paper PMC2860068 (DNA repair, 2010).
